Series [1] is classed as physicochemical. As to the method:
A high solubility under physiological conditions is a crucial prerequisite especially for compounds to be injected into the rodent brain. […] Both peptides were soluble in a concentration range of up to 1000 μM (FIG. 6), so that there was no limitation in view of the agonist doses typically used in behavioral experiments. […] Consequently, solutions of cortagine to be used in the pharmacological assays were prepared in phosphate buffered saline (PBS; pH=7.4).

Another series concerns the target T1, mCRFR2β (Mus musculus, UniProt Q60748).
T1 construct: expressed in transfected cells
The series is described as follows: Competition binding scintillation proximity assay, mCRFR2β membranes. As to the method:
(§1) Crude membrane fractions were prepared from human embryonic kidney (HEK) 293 cells stably expressing either cloned rat CRFR1α(rCRFR1) or mouse CRFR2β (mCRFR2β) as described (20). Rat CRFBP (rCRFBP) was produced in HEK 293 cells stably transfected with cDNA coding for rCRFBP C-terminally fused with a His6 sequence as described (36). The scintillation proximity assays (SPA) for binding analysis of CRFR and CRFBP have been already described in detail (21, 22). For competition binding assays of rCRFR1 and rCRFBP, [^125I-Tyr^0]h/rCRF was used as radiolabeled peptide, whereas [^125I-Tyr^0]Svg was employed for mCRFR2β.
For orientation: Scintillation proximity formats need no separation of bound from free tracer.

The next series has as its target T2, rCRFR1 (Rattus norvegicus, UniProt P35353).
T2 construct: expressed in transfected cells
T2 sequence (P35353 24-415): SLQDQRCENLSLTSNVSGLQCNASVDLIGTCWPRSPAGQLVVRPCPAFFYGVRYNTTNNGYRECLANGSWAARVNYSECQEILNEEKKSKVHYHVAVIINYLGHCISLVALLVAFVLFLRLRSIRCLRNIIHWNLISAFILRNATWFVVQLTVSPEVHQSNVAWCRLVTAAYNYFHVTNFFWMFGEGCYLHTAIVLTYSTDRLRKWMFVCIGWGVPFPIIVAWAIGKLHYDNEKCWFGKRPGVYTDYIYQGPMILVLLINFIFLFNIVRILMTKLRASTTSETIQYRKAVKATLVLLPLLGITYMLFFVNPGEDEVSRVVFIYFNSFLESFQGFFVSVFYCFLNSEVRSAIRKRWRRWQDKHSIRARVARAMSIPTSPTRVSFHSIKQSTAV
The experiment in a line: Competition binding scintillation proximity assay, rCRFR1 membranes. The method, then: as §1

A short description of series [2]: Isoelectric point by isoelectric focusing. The format is physicochemical. Conditions: IEF, pH range 3-10. As to the method: After dissolving the peptides in artificial cerebrospinal fluid (aCSF; 124 mM NaCl, 26.4 mM NaHCO3, 10 mM glucose, 3.3 mM KCl, 2.5 mM CaCl2 , 2.4 mM MgSO4 , 1.2 mM KH2PO4) at pH=7.4, the maximum solubility cmax was determined by amino acid analysis as described (21). The isoelectric point of the peptides was determined by isoelectric focusing (IEF) as described (21) with a Bio-Rad IEF cell system using Bio-Rad IEF strips in the pH range 3-10.

The next series addresses T3, rCRFBP (Rattus norvegicus, UniProt P24388).
T3 construct: His6 (C); made in house; host or cells: HEK 293 cells, stably transfected
T3 sequence (P24388 25-322): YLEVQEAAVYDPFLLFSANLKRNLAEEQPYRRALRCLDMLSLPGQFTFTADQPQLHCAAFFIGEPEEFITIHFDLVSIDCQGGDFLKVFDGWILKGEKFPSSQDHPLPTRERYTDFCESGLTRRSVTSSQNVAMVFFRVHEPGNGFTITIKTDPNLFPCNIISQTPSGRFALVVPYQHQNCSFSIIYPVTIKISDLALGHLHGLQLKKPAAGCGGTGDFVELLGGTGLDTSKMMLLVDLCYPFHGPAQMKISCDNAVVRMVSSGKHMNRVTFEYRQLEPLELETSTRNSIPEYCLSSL
The series is described as follows: Competition binding scintillation proximity assay, rCRFBP. Conditions: binding analysis, in words. As to the method: as §1

Entries after “also recorded” stand apart in the source; their conditions may differ. Where no end group is shown, it is not given here.

T1 sequence (Q60748 1-431 isoform Q60748-2): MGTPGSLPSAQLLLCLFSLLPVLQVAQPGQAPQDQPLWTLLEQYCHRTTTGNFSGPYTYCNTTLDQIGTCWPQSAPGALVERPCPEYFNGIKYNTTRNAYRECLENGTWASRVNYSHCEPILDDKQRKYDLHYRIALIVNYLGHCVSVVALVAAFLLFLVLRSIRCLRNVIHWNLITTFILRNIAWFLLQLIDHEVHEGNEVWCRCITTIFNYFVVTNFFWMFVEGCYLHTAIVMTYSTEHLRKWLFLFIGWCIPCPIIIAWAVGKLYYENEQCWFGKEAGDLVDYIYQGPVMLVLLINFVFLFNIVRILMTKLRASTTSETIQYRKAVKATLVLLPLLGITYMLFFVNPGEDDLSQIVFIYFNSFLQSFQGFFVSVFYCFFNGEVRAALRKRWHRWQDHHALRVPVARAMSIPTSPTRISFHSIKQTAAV

As for “[Glu^21, Ala^40] [Svg^1-12]x[h/rCRF^14-30]x[Svg^30-40] (XGPPISIDLSLELLREVLEMERAEQLAQQAANNRLLLDTA; X not resolved here; ends and bridges not checked; also: Glx at position 1 not given here (Gln/Glu/pGlu)) [cortagine]”, the “solubility in 10 mM aqueous acetic acid” value in series [1] is “insoluble”. For the same substance, the “affinity for CRFR2” value with mCRFR2β (binding analysis, in words) is given as “negligible”. The “change in affinity for CRFR2 in comparison to parent peptide” value with mCRFR2β (compound 8 vs compound 6, compound 9 vs compound 8) is on record as “no significant change”. In addition, the “selectivity for CRFR1” value with rCRFR1 (binding analysis, CRFR1 vs CRFR2, in words) was “high selectivity for rCRFR1 over mCRFR2β”. Further, the “change in affinity to CRFR1 in comparison to parent peptide” value in the series with rCRFR1 (compound 8 vs compound 6, compound 9 vs compound 8, Nle20 analog vs compound 9) is “no significant change”. In addition, in the series with rCRFR1 (ratio of binding affinities), the “CRFR1-selectivity over CRFR2β, IC50(mCRFR2)/IC50(rCRFR1)” value was 208. For the same substance, the “isoelectric point pI” value in series [2] came to 4.8. The “affinity to CRFBP” value with rCRFBP was “negligible; also recorded: does not display any detectable affinity”; with rCRFBP (listed as compound 9), “completely abolished”.

Source of the values: US20080221021A1, “Novel Corticotropin-Releasing Factor Receptor 1 (Crfr1) Agonist” (Max-Planck-Gesellschaft Zur Forderung Der, priority 2004, published 2008).
